Data: paper PMC9373814, “3p-C-NETA: A versatile and effective chelator for development of Al^18F-labeled and therapeutic radiopharmaceuticals” (Theranostics, 2022)

Key:
[1] = biological target: T1, SSTR2 (Rattus norvegicus, UniProt P30680); set-up: method as in PMID 31997090; details: naïve rats, 2 h p.i.; cited from earlier work
T1 construct: from tissue; host or cells: female Wistar rats in vivo (adrenals, pituitary, pancreas)

[2] = system: T2, SSTR2; experiment: in vivo; details: female, Wistar, rat, iv, total radioactivity
T2 construct: from tissue; host or cells: female Wistar rats in vivo (adrenals, pituitary, pancreas)
Experimental: Dynamic PET scans were performed on a small animal PET/MR scanner based on previously reported protocol. Briefly, female Wistar rats (208-231 g) were anaesthetized with a 5% isoflurane/ oxygen mixture before being maintained at 1-2% isoflurane/1 L/minute throughout the experiment. Rats tail veins were cannulated before being placed in the imaging cell (Bruker Biospin) which was then placed into the scanner; temperature and respiration were monitored throughout the scanning via a physiological monitoring system (SA Instruments, Stony Brook, NY, USA). Rats were injected with [^18F]AlF-3p-C-NETA-TATE (5.5-18.5 MBq, apparent molar activity 22 ± 8 GBq/μmol) at the start of the PET acquisition in presence or absence of octreotide acetate (2.5 mg/kg co-injection with radiopharmaceutical; blocking scans were performed the following day in the same animals). 75 min scans were carried out with the pituitary to kidneys in the PET FOV, during which respiration-gated 3D spin-echo MRI (TurboRARE sequence, TR = 500 mseconds (ms), TE = 18.8 ms, RARE factor = 8, FOV 14x6x6 cm, isotropic resolution of 0.5 mm) images were acquired with a quadrature radio-frequency resonator (transmit/receive, 86 mm internal diameter, Bruker Biospin). PET and MRI scans were then repeated at 100-120 minutes with the animal in the same position. Dynamic PET data were divided into timeframes (4×15 s, 1×240 s, 7×600 s) with corrections for decay, randoms, scatter and deadtime and then reconstructed using an MLEM algorithm with 24 iterations and an isotropic voxel size of 0.5 mm. PET images were normalized to injected activity and animal weight to give standardized uptake values (SUV), and selected organs were outlined to create volumes of interest after coregistration with MR images of which SUVmean values are reported; a circular VOI was placed over the splenic division of the pancreas (as visualised via tracer uptake and mapped to the blocked scan) to determine pancreatic uptake. All image analysis was carried out using the PFUSIT module of PMOD (v 4.004, PMOD Technologies Ltd., Zurich, Switzerland). Quantitative data are expressed as mean ± standard error of the mean (SEM).

T1 sequence (P30680 whole entry): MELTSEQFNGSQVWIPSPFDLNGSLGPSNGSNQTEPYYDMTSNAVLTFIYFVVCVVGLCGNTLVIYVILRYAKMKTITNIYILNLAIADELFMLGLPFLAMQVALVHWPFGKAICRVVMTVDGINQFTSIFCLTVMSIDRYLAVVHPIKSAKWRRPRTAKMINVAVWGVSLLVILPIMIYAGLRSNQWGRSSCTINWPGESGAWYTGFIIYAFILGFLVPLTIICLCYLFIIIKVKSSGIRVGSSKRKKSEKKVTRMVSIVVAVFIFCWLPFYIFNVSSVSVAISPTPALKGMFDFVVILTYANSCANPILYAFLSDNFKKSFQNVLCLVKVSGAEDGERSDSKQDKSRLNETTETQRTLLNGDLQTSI

Compound	SUV bone uptake in the spine [1]	SUV at 1.25 h ([2]; 2.5 mg/kg, SUV adrenals) [SUV]	SUV at 2 h ([2]; 2.5 mg/kg, SUV adrenals) [SUV]	SUV at 1.25 h ([2]; 2.5 mg/kg, SUV pancreas) [SUV]	SUV at 2 h ([2]; 2.5 mg/kg, SUV pancreas) [SUV]	SUV at 1.25 h ([2]; 2.5 mg/kg, SUV pituitary) [SUV]	SUV at 2 h ([2]; 2.5 mg/kg, SUV pituitary) [SUV]	SUV at 1.25 h ([2]; SUV adrenals) [SUV]	SUV at 2 h ([2]; SUV adrenals) [SUV]	SUV at 2 h ([2]; SUV blood and non-SSTR2 expressing organs) [SUV]	SUV at 2 h ([2]; SUV bone uptake in the spine) [SUV]	SUV at 1.25 h ([2]; SUV pancreas) [SUV]	SUV at 2 h ([2]; SUV pancreas) [SUV]	SUV at 1.25 h ([2]; SUV pituitary) [SUV]	SUV at 2 h ([2]; SUV pituitary) [SUV]
[^18F]AlF-NOTA-Octreotide	0.45 ± 0.03	–	–	–	–	–	–	–	–	–	–	–	–	–	–
C[C@@H](O)[C@H](NC(=O)[C@@H]1CSSC[C@H](NC(=O)[C@@H](Cc2ccccc2)NC(=O)CCC(=O)Nc2ccc(CCCC(CN3CCN(CC(=O)O)CCN(CC(=O)O)CC3)N(CC(=O)O)CC(=O)O)cc2)C(=O)N[C@@H](Cc2ccc(O)cc2)C(=O)N[C@H](Cc2c[nH]c3ccccc23)C(=O)N[C@@H](CCCCN)C(=O)N[C@@H]([C@@H](C)O)C(=O)N1)C(=O)O (stereo partly drawn) [[^18F]AlF-3p-C-NETA-TATE]	–	0.24 ± 0.03	0.18 ± 0.04	0.34 ± 0.2	0.31 ± 0.07	0.2 ± 0.04	0.21 ± 0.06	1.2 ± 0.59	1.22 ± 0.65	< 0.6	0.43 ± 0.25	7.78 ± 4.26	8.35 ± 5.07	0.93 ± 0.34	0.93 ± 0.36
